From the DeepSol protein solubility set

Experiment: soluble on expression in E. coli; label from the status in PepcDB or PDB records

Row | Sequence | soluble on expression in E. coli
1 | SLDAAVGDVIVTLGADLSESDKQKVLDEMNVPDNATTVTVTNKEEHEYLGKYISNAQIGSRAISSSSITIAKKGSGLNVETHNISGITDEMYLNALMTAGVKDAKVYVTAPFEVSGTAALTGLIKAYEVSSDEAISEDVKQVANQELVTTSELGDKIGNENAAALIAKIKEEFAKNGVPDNKADIEKQVDDAASDLNVTLTDSQKNQLVSLFNKMKNADIDWGQVSDQLDKAKDKITKFIESDEGKNFIQKVIDFFVSIWNAIVSIFK | soluble
2 | SKVMTLKDAIAKYVHSGDHIALGGFTTDRKPYAAVFEILRQGITDLTGLGGAAGGDWDMLIGNGRVKAYINCYTANSGVTNVSRRFRKWFEAGKLTMEDYSQDVIYMMWHAAALGLPFLPVTLMQGSGLTDEWGISKEVRKTLDKVPDDKFKYIDNPFKPGEKVVAVPVPQVDVAIIHAQQASPDGTVRIWGGKFQDVDIAEAAKYTIVTCEEIISDEEIRRDPTKNDIPGMCVDAVVLAPYGAHPSQCYGLYDYDNPFLKVYDKVSKTQEDFDAFCKEWVFDLKDHDEYLNKLGATRLINLKVVPGLGYHIDMTKE | soluble
3 | MTYETVERSKKSQVNLNNKEPFSVLLLGIDTGDDGRVEQGRSDTTIVATVNPRDKQTTLVSLARDTYVDIPGQGKQDKLNHAYAFGGASLAMDTVENYLNIPINHYVSINMAGLKELVNAVGGIEVNNNLTFSQDGYDFTIGKISLDGEQALSYSRMRYEDPNGDYGRQERQRKVIEGIVQKVLSLNSVSNYQEILTAVSDNMKTDLSFDDMKKIALDYRSAFGKVKQDQLQGTGFMQDGVSYQRVDEQELTRVQQELKNQLNTKLEHHHHHH | soluble
4 | MKNNRYSPDWPQLALQKKQSVNWVCERCGVQCLKPGEGKGLSTGDRYRLRMAVHHCDYDPSNNYPSNLMALCSPCHLYYHRRQRGNVTPGQLTLKFCLEHHHHHH | not soluble
5 | MGSDKIHHHHHHMKNVIKFYEKGSIEILYGKSSHSFPLHSHECFCVGAITKGSALFTINNTKCLLEESMVFIIPPNTGISITANSQYDYITICFKNELKKQVEHILFNKFFLKIKSNDEIFNLCDIFKENNNEKQLLNSILILINSTIATNSLVMETSTNNTVLLICEYIKQTAAKNFSLDTLAESFYLSKYHLIRMFKKEMGVTPYQYYIQAKMGIIRRQIFNGKSETDLAINLNLSDSSHLCKIFKRQMGISIQAYKKNLIRK | not soluble
6 | MSNFSEGEIFIANIEKKSLECRENDEIVVLKICELCNIIYPIFNKIFGNGFVGDTLKKDLKNSSSQVQRAIEKFPEETKYVSMLYSYNINKYENMEKLKRDLDNGIISFLWMKRTLEFIITFLEKCYITCSETKLSICAQEAYNEVLKKYHGFITSKIVKLCLKLSPTKDILTKKLGFQTHQQASTVLQKCLSITKPLVRDISVTIEKFNCDFEEKI | not soluble
7 | MGSDKIHHHHHHMSRRHYNLPPLTTLTAFEAAARHLSFKDAAKELSVTPGAVSHQVKALEGELGVALFRRKHRGVDLTVPGQTLYDTLAGSLTRISQSLQSIRDQSSAGVVTVGSTTAMAAMWLSPAVIRFWRDHPEININQVVRDRAFTTSAELDLYIWYGREKDQRLDQFPLYRDRLLPVAAPERAAELAGADLDVLASQRLIHLEGDDISWTKWHDWFRQLGYSGPVASGIRVNNYSIALQAARDGAGLTLGWERLISPLITQGDLAIIGPHVLPAPERFFLVSKPDEELTPSARLLRDWIIEEASQITDEPC | not soluble
8 | MQSNKAFNLEKQNHTPRKHHQHHHQQHHQQQQQQQQQQPPPPIPANGQQASSQNEGLTIDLKNFRKPGEKTFTQRSRLFVGNLPPDITEEEMRKLFEKYGKAGEVFIHKDKGFGFIRLETRTLAEIAKVELDNMPLRGKQLRVRFACHSASLTVRNLPQYVSNELLEEAFSVFGQVERAVVIVDDRGRPSGKGIVEFSGKPAARKALDRCSEGSFLLTTFPRPVTVEPMDQLDDEEGLPEKLVIKNQQFHKEREQPPRFAQPGSFEYEYAMRWKALIEMEKQQQDQVDRNIKEAREKLEMEMEAARHEHQVMLMRQDLMRRQEELRRMEELHNQEVQKRKQLELRQEEERRRREEEMRRQQEEMMRRQQEGFKGTFPDAREQEIRMGQMAMGGAMGINNRGAMPPAPVPPGTPAPPGPATMMPDGTLGLTPPTTERFGQAATMEGIGAIGGTPPAFNRPAPGAEFAPNKRRRY | soluble
9 | SQAPHKEHLYKLLVIGDLGVGKTSIIKRYVHQNFSSHYRATIGVDFALKVLHWDPETVVRLQLWDIAGQERFGNMTRVYYREAMGAFIVFDVTRPATFEAVAKWKNDLDSKLSLPNGKPVSVVLLANKCDQGKDVLMNNGLKMDQFCKEHGFVGWFETSAKENINIDEASRCLVKHILANECDLMESIEPDVVKPHLTSTKVASCSGCAKS | soluble
10 | MAKNIPFKLILEKAKDYQADMTRFLRDMVAIPSESCDEKRVVHRIKEEMEKVGFDKVEIDPMGNVLGYIGHGPRLVAMDAHIDTVGIGNIKNWDFDPYEGMETDELIGGRGTSDQEGGMASMVYAGKIIKDLGLEDEYTLLVTGTVQEEDCDGLCWQYIIEQSGIRPEFVVSTEPTDCQVYRGQRGRMEIRIDVQGVSCHGSAPERGDNAIFKMGPILGELQELSQRLGYDEFLGKGTLTVSEIFFTSPSRCAVADSCAVSIDRRLTWGETWEGALDEIRALPAVQKANAVVSMYNYDRPSWTGLVYPTECYFPTWKVEEDHFTVKALVNAYEGLFGKAPVVDKWTFSTNGVSIMGRHGIPVIGFGPGKEPEAHAPNEKTWKSHLVTCAAMYAAIPLSWLATE | soluble
11 | MLRQLTFLFPTKFHRGKKLRTQRYRGLQSKEKKKLSLLTTKFSDEAWGDNHKNKVVYRAQDRFHNPLFIVLMVVKKKLDHKKLIDNNSHYHVCI | not soluble
12 | MSLIDKSSEIARFSGKGILITPKTLEKPLLKWEKLEIILYKDKIVFEFVDKTIEVGVEDIEDVGAELPKKVIDIAKSTLEDITYHSSIIIKSKEFGNVMVGFAPETSIYGKAPIDNFLRKLFYILLNKKEVKILYNAGENSENTKWENGFLTFIKKRIKDGLVTKIEYRLVVEILDNEDSKIYDIFSNIKDVEIEEKDVDGEIEPVLKILQVKDGKDIISYLYTKDKKVRLFILRYMVILLDYKYIGILRYLQETVEEGHHHHHH | soluble
13 | MKSVQEKRNNTRAFKTVAKSWFATKTTWSEDYQRSVWTRLETYLFPDIGNKDIAELDTGDLLVPIKKIEKLGYLEIAMRVKQYATAIMRYAVQQKMIRFNPAYDLEGAVQKLEHHHHHH | soluble
14 | MGSDKIHHHHHHMTKQLLVLQSDFGISDGAVSAMYGVINSVSKDLQIYDLTHQIPQFNIWEASYRLLQTVTYWPEDTIFVSIVDPGVGSKRRSVVVLTEDGHYIITPDNGTLTHIAHYGTIKEVRLIDEEKNRLPKSGASHTFHGRDIFAYTAARLAAGVINFEDIGPSATPDSIVSLSLSDSYLEGEQAFGTIDIIDRPFGNLWTNIRRTDFLQLGANYGDSIEVLIKHHDRVVYKNFVTYSRSFADLRIGEALIYVNSLDNLGLGINQGSFVDAYSVGTGTSWKVTLKKV | not soluble
15 | MGMIVFVRFNSSYGFPVEVDSDTSILQLKEVVAKRQGVPADQLRVIFAGKELPNHLTVQNCDLEQQSIVHIVQRPRRR | soluble
16 | MKLKAILIVALSVVLFLVGYREMKPISDEQKMESMIKALEKNDAKVEKWSWLARETKTISNIHTFQKLLNDVKEKANIQKWEVEQSPDGYKATSYKKLSSYEERVVVTWSKENTKENTFIIFEVSGAKWDPKYVQNMNKIFSEKPIIYTCVQGVLNDKIEGVLQNKTNQVLKDLSARAIEQVEERAFVSVSAYNKKWDDALSTNREKINVQIAIRSTDNKDTIVVGTPIITSEY | not soluble
17 | MSPWERILLEEILSEPVRLVKERVRTHTGRELTYVYRPGPVAASFVLPVTERGTALLVRQYRHPTGKFLLEVPAGKVDEGETPEAAARRELREEVGAEAETLIPLPSFHPQPSFTAVVFHPFLALKARVVTPPTLEEGELLESLELPLTEVYALLAKGEIQDASTALTLFYAEPHLKRLGLL | soluble
18 | MNINRNKIVQLADTDTIENLTSALSQRLIADQLRLTTAESCTGGKLASALCAAEDTPKFYGAGFVTFTDQAKMKILSVSQQSLERYSAVSEKVAAEMATGAIERADADVSIAITGYGGPEGGEDGTPAGTVWFAWHIKGQNYTAVMHFAGDCETVLALAVRFALAQLLQLLL | not soluble
